The labels stand for the following.
B1: Protein NDR1 (Arabidopsis thaliana (Mouse-ear cress)), O48915 (parent)
chain: MNNQNEDTEGGRNCCTCCLSFIFTAGLTSLFLWLSLRADKPKCSIQNFFIPALGKDPNSRDNTTLNFMVRCDNPNKDKGIYYDDVHLNFSTINTTKINSSALVLVGNYTVPKFYQGHKKKAKKWGQVKPLNNQTVLRAVLPNGSAVFRLDLKTQVRFKIVFWKTKRYGVEVGADVEVNGDGVKAQKKGIKMKKSDSSFPLRSSFPISVLMNLLVFFAIR
partner: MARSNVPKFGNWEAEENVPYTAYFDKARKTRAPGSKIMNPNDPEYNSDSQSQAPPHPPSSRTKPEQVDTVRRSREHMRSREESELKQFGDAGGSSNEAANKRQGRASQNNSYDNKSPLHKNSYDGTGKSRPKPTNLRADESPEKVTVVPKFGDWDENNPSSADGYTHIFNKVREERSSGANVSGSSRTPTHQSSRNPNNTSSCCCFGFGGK

The variants in the experiment derive from B1. To be noted: with rin4_arath RIN4, Q8GYN5.
Turning to N5A, the “effect of a mutation on the interaction” value is on record as “disrupting interaction”. Then Q4A, with “disrupting interaction”.
